From FireProtDB (doi:10.1021/bi0268697)
Values joined by “and” are separate entries in the source; they are usually repeats but may differ in a detail not shown here. Equal entries are not always repeated.

B1: Barstar, P11540 (parent)
chain: MKKAVINGEQIRSISDLHQTLKKELALPEYYGENLDALWDCLTGWVEYPLVLEWRQFEQSKQLTENGAESVLQVFREAKAEGCDITIILS

Variants of: B1
Settings: Bacillus amyloliquefaciens; pH 8; 25 °C; Urea; CD; Tris 20 mM; reversible: yes; structure 1BTA; whole UniProt chain shown

MKKAVINGEQIRSISDLHQTLKKELALPEYYGENLDALFDCLTGFVEYPLVLEWRQFEQSKQLTENGAESVLQVFREAKAEGADITIILS [W39F W45F C83A]
denaturant midpoint (higher = more stable): 3.3 M and 3.7 M | unfolding free energy: 4.2 kcal/mol and 4.7 kcal/mol

MKKAVINGEQIRTISDLHQTLKKELALPEYYGENLDALFDALTGFVEYPLVLEWRQFEQSKQLTENGAESVLQVFREAKAEGCDITIILS [W39F W45F S13T C41A]
denaturant midpoint (higher = more stable): 3.4 M and 3.5 M | unfolding free energy: 4.5 kcal/mol

MKKAVINGEQIRSISDLHQTLKKELCLPEYYGENLDALFDALTGFVEYPLVLEWRQFEQSKQLTENGAESVLQVFREAKAEGADITIILS [W39F W45F C41A C83A A26C]
denaturant midpoint (higher = more stable): 3.5 M and 3.4 M | unfolding free energy: 4.4 kcal/mol and 4.3 kcal/mol

MKKAVINGEQIRSISDLHQTLKKELALPEYYGENLDALFDALTGFVEYPLVLEWRQFEQSKQCTENGAESVLQVFREAKAEGADITIILS [W39F W45F C41A C83A L63C]
denaturant midpoint (higher = more stable): 3.3 M | unfolding free energy: 4 kcal/mol
